# According to patent US20150044226A1 (SBI BIOTECH, published 2015):
# Numbering of substitutions follows the chain as printed.
# T1: rhesus monkey PLD4 (rhesus monkey, UniProt Q96BZ4 1-506 (human entry))
# T1 construct: also called rhesus monkey PLD4 protein
# T1 chain: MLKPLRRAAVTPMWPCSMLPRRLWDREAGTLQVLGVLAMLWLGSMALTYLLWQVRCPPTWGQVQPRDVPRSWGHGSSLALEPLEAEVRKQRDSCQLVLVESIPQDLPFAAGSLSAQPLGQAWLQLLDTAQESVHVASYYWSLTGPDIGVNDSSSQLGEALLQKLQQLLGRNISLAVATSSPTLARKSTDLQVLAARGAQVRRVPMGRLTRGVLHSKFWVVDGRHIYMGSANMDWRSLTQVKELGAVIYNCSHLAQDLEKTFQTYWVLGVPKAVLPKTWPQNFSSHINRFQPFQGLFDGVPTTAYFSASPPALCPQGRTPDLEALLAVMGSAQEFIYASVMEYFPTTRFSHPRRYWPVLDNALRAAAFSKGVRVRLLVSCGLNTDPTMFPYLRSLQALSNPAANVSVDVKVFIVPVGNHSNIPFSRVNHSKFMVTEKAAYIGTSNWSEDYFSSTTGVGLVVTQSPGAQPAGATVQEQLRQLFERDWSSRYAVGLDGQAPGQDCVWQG
# T2: human PLD4 (phospholipase D4) protein (UniProt Q96BZ4 1-506)
# T2 chain: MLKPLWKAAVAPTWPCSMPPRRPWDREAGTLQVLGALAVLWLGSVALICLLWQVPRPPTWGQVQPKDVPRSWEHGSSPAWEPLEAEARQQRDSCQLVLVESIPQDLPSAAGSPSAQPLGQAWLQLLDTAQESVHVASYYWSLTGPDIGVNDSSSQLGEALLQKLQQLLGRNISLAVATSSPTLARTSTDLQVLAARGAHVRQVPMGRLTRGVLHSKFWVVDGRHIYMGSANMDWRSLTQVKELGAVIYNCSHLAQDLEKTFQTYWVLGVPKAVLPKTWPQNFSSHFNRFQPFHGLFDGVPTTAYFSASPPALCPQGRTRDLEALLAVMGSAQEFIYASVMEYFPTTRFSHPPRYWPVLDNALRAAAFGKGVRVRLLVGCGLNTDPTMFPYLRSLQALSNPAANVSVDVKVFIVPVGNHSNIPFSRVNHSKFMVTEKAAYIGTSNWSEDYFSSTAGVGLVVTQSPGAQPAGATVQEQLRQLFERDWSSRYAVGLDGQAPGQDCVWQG
# T3: cynomolgus monkey PLD4 (cynomolgus monkey, UniProt Q96BZ4 1-506 (human entry))
# T3 construct: also called cynomolgus monkey PLD4 protein; cyno PLD4
# T3 chain: T1 chain with C56R, R66K, L78P
# T4: human PLD4 (phospholipase D4) protein (human, UniProt Q96BZ4 1-506)
# T4 construct: Type II transmembrane protein, 506 a.a; also called hPLD4; HuPLD4
# T4 sequence: T2 chain
# T5: human PLD3 (human, UniProt Q8IV08 1-490)
# T5 construct: also called human PLB3 [sic]
# T5 sequence: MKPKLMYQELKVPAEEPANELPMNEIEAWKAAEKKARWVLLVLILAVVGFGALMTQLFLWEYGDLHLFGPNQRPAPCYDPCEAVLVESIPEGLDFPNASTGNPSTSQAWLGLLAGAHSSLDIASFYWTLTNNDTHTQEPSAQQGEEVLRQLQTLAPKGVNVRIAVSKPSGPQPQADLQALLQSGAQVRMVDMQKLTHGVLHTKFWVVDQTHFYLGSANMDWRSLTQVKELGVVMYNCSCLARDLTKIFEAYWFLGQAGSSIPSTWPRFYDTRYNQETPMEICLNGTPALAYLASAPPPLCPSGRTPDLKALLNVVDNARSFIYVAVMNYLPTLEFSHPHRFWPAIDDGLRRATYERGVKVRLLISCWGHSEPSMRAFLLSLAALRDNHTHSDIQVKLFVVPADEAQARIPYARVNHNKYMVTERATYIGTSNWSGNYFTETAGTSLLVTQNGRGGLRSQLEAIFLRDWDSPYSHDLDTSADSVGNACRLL
# T6: human PLD5 (human, UniProt Q8N7P1 92-536)
# T6 sequence: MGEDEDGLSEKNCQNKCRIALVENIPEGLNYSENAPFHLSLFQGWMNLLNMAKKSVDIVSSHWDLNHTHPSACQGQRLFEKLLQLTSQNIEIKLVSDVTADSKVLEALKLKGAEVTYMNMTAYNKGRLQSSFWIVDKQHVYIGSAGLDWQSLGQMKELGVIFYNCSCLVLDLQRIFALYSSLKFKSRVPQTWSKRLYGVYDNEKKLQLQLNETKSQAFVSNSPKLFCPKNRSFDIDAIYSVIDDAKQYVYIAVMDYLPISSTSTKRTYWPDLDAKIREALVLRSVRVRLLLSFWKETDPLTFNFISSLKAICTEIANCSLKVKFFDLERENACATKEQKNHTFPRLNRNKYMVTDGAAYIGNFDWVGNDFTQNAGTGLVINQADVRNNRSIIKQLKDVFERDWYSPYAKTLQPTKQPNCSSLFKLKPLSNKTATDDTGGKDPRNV
# B1: anti-PLD4 mouse 5B7 antibody (antibody, V domains shown)
# VH: EVQLQQSGPELVKPGASVKISCKASGYTFTDYNLHWVKQSHGKSLEWIGYIYPYNGNTGYNQKFKRKATLTVDNSSGTVYMELRSLTSEDSAVYYCARGGIYDDYYDYAIDYWGQGTSVTVSS
# VL: DIQMTQSPASLSVSVGETVAITCRASENIYSHIAWYQQKEGKSPQRLVYGATNLAHGVPSRFSGSGSGTQYSLKINSLQSEDFGSYYCQHFWGTPWTFGGGTKLEIKR
# notes: Tested as hybridoma culture supernatant and as protein A purified antibody; also called mp5B7 (hybridoma)
# B2: anti-PLD4 mouse 7B4 antibody (antibody, mouse IgG2b, V domains shown)
# VH: B1 VH
# VL: B1 VL
# notes: Tested as hybridoma culture supernatant and as purified antibody; also called mp7B4 (hybridoma)
# B3: anti-PLD4 mouse 13H11 antibody (antibody, mouse IgG2b, V domains shown)
# VH: DVQLQESGPGLVKPSQSLSLTCSVTGYSISSHYYWSWIRQFPGNRLEWMGYISYDGSNNYNPSLKNRISITRDTSKNQFFLKLNSVTTEDTATYNCAREGPLYYGNPYWYFDVWGAGTTVTVSS
# VL: DIQMTQTTSSLSASLGGSVTISCRASQDIDNYLNWYQQKPDGTVKLLIYYTSRLHSGVPSRFSGSGSGTDYSLTISNLEQEDIATYFCQQFNTLPRTFGGGTKLEIKR
# notes: Tested as hybridoma culture supernatant and as purified antibody; also called mp13H11 (hybridoma)
# B4: anti-PLD4 mouse 13D4 antibody (antibody, mouse IgG2b, V domains shown)
# VH: B3 VH with S30T, S36T, R45K
# VL: B3 VL with G17D, S18R, I83V
# notes: Tested as hybridoma culture supernatant and as purified antibody; also called mp13D4 (hybridoma)
# B5: anti-PLD4 mouse 11G9.6 antibody (antibody, V domains shown)
# VH: QVQLQQPGAELVKPGTSVKMSCKASGYTFTSYWMHWVKQRPGQGLEWIGDIYPGSDSTNYNEKFKSKATLTVDTSSSTAYMQLSSLTSEDSAVYYCARGGWLDAMDYWGQGTSVTVSS
# VL: B3 VL with G17D, S18R, D30S, F91G, R96W
# notes: Tested as hybridoma culture supernatant and as purified antibody; also called mp11G9.6; mp11G9.6 antibody
# B6: anti-PLD4 mouse 14C1 antibody (antibody, mouse IgG1, V domains shown)
# VH: B3 VH
# VL: B3 VL
# notes: Tested as hybridoma culture supernatant and as purified antibody
# B7: anti-PLD4 chimeric 11G9 antibody (antibody, human IgG1, kappa, V domains shown)
# VH: B5 VH
# VL: B3 VL with G17D, S18R, D30S, F91G, R96W
# notes: Mouse 11G9.6 variable regions on human IgG1 heavy and human Ig kappa light constant regions; also called ch11G9.6; ch11G9.6 antibody
# B8: anti-PLD4 mouse 3B4 antibody (antibody, V domains shown)
# VH: EVQLQQSGTVLSRPGASVTMSCKASGDSFTTYWMHWVKQRPGQGLEWIGAIYPGNSETSYNQKFKGKAKLTAVTSASTAYMEFTSLTNEDSAVYYCTGGYSDFDYWGQGTTLTVSS
# VL: DILMTQSPSSMSVSLGDTVSITCHASQGIRSNIGWLQQKPGKSFKGLIFHGTNLEDGVPSRFSGRGSGADYSLTINSLESEDFADYYCVQYVQFPPTFGSGTKLEIRR
# notes: Tested as hybridoma culture supernatant and as protein A purified antibody
# Experiments:
# [1] = target: T1, rhesus monkey PLD4; assay: FACS on rhesus monkey PBMC, pDC population (FIG. 18-1, 18-2)
# Protocol: PBMC of rhesus monkey from the peripheral blood (10 mL; SHIN NIPPON BIOMEDICAL LABORATORIES, LTD.), was centrifuged with specific gravity using 96% Ficoll-Paque (trademark) PLUS (GE Healthcare company, Cat No. 17-1440-02). For FACS, 5×10⁵ of cells were used per sample. The cells were washed with FACS buffer cell, and then added with 10 μL of 10% cynomolgus monkey serum diluted with FACS buffer, and reacted at 4° C. for 20 minutes. The cells were washed with FACS buffer, and then added with 100 μL of the cell culture supernatant of each hybridoma and 10 μg/mL of mouse IgG2a, κ or mouse IgG1, κ, and reacted at 4° C. for 15 minutes. The cells were washed with FACS buffer, and then added with 1 μg/mL of APC-labeled anti-mouse IgG antibody, and reacted at 4° C. for 20 minutes. The cells were washed with FACS buffer, and then reacted with 25 μL of 10 fold dilution of FITC-labeled anti-Lineage 1 antibody, PE-labeled anti-CD123 antibody, and PcrCP-Cy5.5-labeled anti-HLA-DR antibody at 4° C. for 15 minutes. The cells were washed with FACS buffer, and then resuspended in 300 μL of FACS buffer, and analyzed with FACS calibur. The used hybridoma culture supernatant was specific to PLD4, and 10 kinds of 3B4, 5B7, 7B4, 8C11, 10C3, 11D10, 13D4, 13H11, 14C1, and 11G9.6, which bound well to CAL-1 cell or human pDC, were selected. As a result thereof, 5 kinds of the hybridoma cell culture supernatants, i.e., 5B7, 7B4, 13D4, 13H11, and 14C1 specifically bound to pDC cell population of cynomolgus monkey (Lineage-CD123+HLA-DR+) (FIG. 18).
# [2] = target: T2, human PLD4 (phospholipase D4) protein; assay: binding to human PLD4-CT125 stable cells; apparent Kd
# [3] = target: T3, cynomolgus monkey PLD4; assay: FACS on cynomolgus monkey PLD4-CT125 cells (FIG. 16)
# [4] = target: T4, human PLD4 (phospholipase D4) protein; assay: FACS titration (0.001 to 30 µg/mL) of purified antibody on human PLD4-CT125 cells, positive cell frequency fitted with GraphPad Prism (FIG. 19)
# Protocol: For binding ability of the purified antibody, human PLD4-CT125 expression stable cell strain was reacted to nearly 100% of the positive staining rate at low concentration to high concentration (0.001 μg/mL to 30 μg/mL) of purified PLD4 antibody concentration. The frequency of staining positive cell and the antibody were data-analyzed using Graph Pad Prism version 5 software, and the dissociation constant molar concentration (Kd value) was computed in nM unit.
# [5] = target: T5, human PLD3; assay: FACS on 293T transfectants (FIG. 8)
# [6] = target: T6, human PLD5; assay: FACS on 293T transfectants (FIG. 8)
# [7] = target: T3, cynomolgus monkey PLD4; assay: FACS on 293T transfectant (FIG. 9)
# [8] = target: T1, rhesus monkey PLD4; assay: FACS, hybridoma culture supernatant on rhesus monkey PLD4-293T transient transfectants (FIG. 17)
Binder,binding result [1],Kd [2],binding result [3],Kd [4],binding result [5],binding result [6],binding result [7],binding result [8]
B1,binds,0.056 nM,binds,≤ 1 nM,,,,
B2,binds,0.087 nM,binds,≤ 1 nM,,,,
B3,binds,0.057 nM,binds,≤ 1 nM,,,,
B4,binds,0.045 nM,binds,≤ 1 nM,,,,
B5,,0.058 nM,,≤ 1 nM,no binding,no binding,,
B6,binds,3.73 nM,binds,> 1 nM,,,,
B7,,,,,no binding,no binding,binds,
B8,,2.12 nM,binds,> 1 nM,,,,binds
